# Measured values as given in the array DNA melting data of Ke et al..
# Experiment: melting temperature; melt of duplexes
# Settings: sodium 0.0675 M; strand 1 µM
row,Substance,Tm [°C]
1,CGACGTGCCTTATGTGCTG+CAGCACATCATGCACGTCG ((((((((.(.((((((((+)))))))).).)))))))),47.7
2,CGACGTGCCTTATGTGCTG+CAGCACATCCCGCACGTCG ((((((((...((((((((+))))))))...)))))))),46.8
3,CGACGTGCCTTATGTGCTG+CAGCACATCCTGCACGTCG ((((((((...((((((((+))))))))...)))))))),47.2
4,CGACGTGCCTTATGTGCTG+CAGCACATCGAGCACGTCG ((((((((...((((((((+))))))))...)))))))),48.3
5,CGACGTGCCTTATGTGCTG+CAGCACATCTAGCACGTCG ((((((((...((((((((+))))))))...)))))))),48.1
6,CGACGTGCCTTATGTGCTG+CAGCACATCTCGCACGTCG ((((((((...((((((((+))))))))...)))))))),46.6
7,CGACGTGCCTTATGTGCTG+CAGCACATGACGCACGTCG ((((((((.(.((((((((+)))))))).).)))))))),45.4
8,CGACGTGCCTTATGTGCTG+CAGCACATGATGCACGTCG ((((((((.(.((((((((+)))))))).).)))))))),50.1
9,CGACGTGCCTTATGTGCTG+CAGCACATGCCGCACGTCG ((((((((...((((((((+))))))))...)))))))),46.9
10,CGACGTGCCTTATGTGCTG+CAGCACATGCGGCACGTCG (((((((((..((((((((+))))))))..))))))))),52.3
11,CGACGTGCCTTATGTGCTG+CAGCACATGGTGCACGTCG ((((((((...((((((((+))))))))...)))))))),46
12,CGACGTGCCTTATGTGCTG+CAGCACATGTCGCACGTCG ((((((((...((((((((+))))))))...)))))))),47.8
13,CGACGTGCCTTATGTGCTG+CAGCACATGTGGCACGTCG (((((((((..((((((((+))))))))..))))))))),54.4
14,CGACGTGCCTTATGTGCTG+CAGCACATTAAGCACGTCG ((((((((.(.((((((((+)))))))).).)))))))),49.8
15,CGACGTGCCTTATGTGCTG+CAGCACATTAGGCACGTCG ((((((((((.((((((((+)))))))).)))))))))),58
16,CGACGTGCCTTATGTGCTG+CAGCACATTGAGCACGTCG ((((((((...((((((((+))))))))...)))))))),49.6
17,CGACGTGCCTTATGTGCTG+CAGCACATTGCGCACGTCG ((((((((...((((((((+))))))))...)))))))),48.4
18,CGACGTGCCTTATGTGCTG+CAGCACATTGTGCACGTCG ((((((((...((((((((+))))))))...)))))))),45.7
19,CGACGTGCGAAATGTGCTG+CAGCACATACCGCACGTCG (((((((((..((((((((+))))))))..))))))))),53.9
20,CGACGTGCGAAATGTGCTG+CAGCACATAGAGCACGTCG ((((((((...((((((((+))))))))...)))))))),56.2
21,CGACGTGCGAAATGTGCTG+CAGCACATAGCGCACGTCG (((((((((..((((((((+))))))))..))))))))),55.4
22,CGACGTGCGAAATGTGCTG+CAGCACATAGGGCACGTCG ((((((((...((((((((+))))))))...)))))))),49.9
23,CGACGTGCGAAATGTGCTG+CAGCACATAGTGCACGTCG ((((((((...((((((((+))))))))...)))))))),46
24,CGACGTGCGAAATGTGCTG+CAGCACATATAGCACGTCG ((((((((.(.((((((((+)))))))).).)))))))),54.3
25,CGACGTGCGAAATGTGCTG+CAGCACATCAAGCACGTCG ((((((((...((((((((+))))))))...)))))))),52.3
26,CGACGTGCGAAATGTGCTG+CAGCACATCAGGCACGTCG ((((((((...((((((((+))))))))...)))))))),49.7
27,CGACGTGCGAAATGTGCTG+CAGCACATCATGCACGTCG ((((((((...((((((((+))))))))...)))))))),49.9
28,CGACGTGCGAAATGTGCTG+CAGCACATCCAGCACGTCG ((((((((...((((((((+))))))))...)))))))),50.8
